{"source": "paper PMC9992855", "about": "“Functional polyamine metabolic enzymes and pathways encoded by the virosphere” (Proceedings of the National Academy of Sciences of the …, 2023)", "substrate": "CC(=O)NCCCNCCCCN", "test": "colorimetric acetate release", "assay_type": "biochemical, Mycoplana ramosa", "conditions": "26 °C", "description": "colorimetric acetate release on M. ramosa APAH"}
{"protein": "M. ramosa APAH (Mycoplana ramosa) (protein, 341 aa; positive comparative control enzyme) MRVIFSEDHKLRNAKTELYGGELVPPFEAPFRAEWILAAVKEAGFDDVVAPARHGLETVLKVHDAGYLNFLETAWDRWKAAGYKGEAIATSFPVRRTSPRIPTDIEGQIGYYCNAAETAISPGTWEAALSSMASAIDGADLIAAGHKAAFSLCRPPGHHAGIDMFGGYCFINNAAVAAQRLLDKGAKKIAILDVDFHHGNGTQDIFYERGDVFFASLHGDPAEAFPHFLGYAEETGKGAGAGTTANYPMGRGTPYSVWGEALTDSLKRIAAFGAEAIVVSLGVDTFEQDPISFFKLTSPDYITMGRTIAASGVPLLVVMEGGYGVPEIGLNVANVLKGVAG", "values": [{"measurement": "Km", "result": "630 ± 40", "unit": "µM"}, {"measurement": "kcat", "result": "5.8 ± 0.14", "unit": "s⁻¹"}, {"measurement": "kcat/Km", "result": "9300 ± 450", "unit": "M⁻¹ s⁻¹"}]}
